Test results published in patent US20220153832A1 (PIONYR IMMUNOTHERAPEUTICS, published 2022).

Tests used:
[1] = molecular target: T1, N-terminally polyhistidine tagged human MARCO ECD (147-520), recombinant (human, UniProt Q9UEW3 147-520); assay: Biacore (SPR), recombinant human MARCO
T1 construct: also called PI-RG-3000; recombinant human MARCO; not shown: N-terminal polyhistidine tag
T1 sequence: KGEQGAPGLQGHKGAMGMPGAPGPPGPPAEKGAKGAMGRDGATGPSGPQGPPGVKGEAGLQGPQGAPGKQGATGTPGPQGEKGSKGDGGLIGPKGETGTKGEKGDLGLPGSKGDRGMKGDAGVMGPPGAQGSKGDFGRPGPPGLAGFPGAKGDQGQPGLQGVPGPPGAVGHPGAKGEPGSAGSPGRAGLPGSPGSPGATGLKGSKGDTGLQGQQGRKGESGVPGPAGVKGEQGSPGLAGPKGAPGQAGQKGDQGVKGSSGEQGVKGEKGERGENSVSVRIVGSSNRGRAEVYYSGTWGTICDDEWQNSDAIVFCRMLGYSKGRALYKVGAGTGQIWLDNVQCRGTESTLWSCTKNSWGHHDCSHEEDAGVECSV
Procedure, shortened: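 Antibodies were captured by anti-mouse Fc mAb amine-coupled to a CM4 chip (4500 RU target). Running buffer was 10 mM HEPES pH 7.4, 150 mM NaCl, 3 mM EDTA, 0.05% surfactant P20. Injections were at 0.625–10 nM with 90 s association and 600 s dissociation, and constants were fitted in BIAevaluation 3.1.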

[2] = molecular target: T2, Human Macrophage Receptor with Collagenous Structure (MARCO), full length, on cells (human, UniProt Q9UEW3 1-520); assay: flow cytometry, cells overexpressing human MARCO; hu (first of hu/cyn)
T2 construct: the cell type is named under assay; also called huMARCO; HuMARCO
T2 sequence: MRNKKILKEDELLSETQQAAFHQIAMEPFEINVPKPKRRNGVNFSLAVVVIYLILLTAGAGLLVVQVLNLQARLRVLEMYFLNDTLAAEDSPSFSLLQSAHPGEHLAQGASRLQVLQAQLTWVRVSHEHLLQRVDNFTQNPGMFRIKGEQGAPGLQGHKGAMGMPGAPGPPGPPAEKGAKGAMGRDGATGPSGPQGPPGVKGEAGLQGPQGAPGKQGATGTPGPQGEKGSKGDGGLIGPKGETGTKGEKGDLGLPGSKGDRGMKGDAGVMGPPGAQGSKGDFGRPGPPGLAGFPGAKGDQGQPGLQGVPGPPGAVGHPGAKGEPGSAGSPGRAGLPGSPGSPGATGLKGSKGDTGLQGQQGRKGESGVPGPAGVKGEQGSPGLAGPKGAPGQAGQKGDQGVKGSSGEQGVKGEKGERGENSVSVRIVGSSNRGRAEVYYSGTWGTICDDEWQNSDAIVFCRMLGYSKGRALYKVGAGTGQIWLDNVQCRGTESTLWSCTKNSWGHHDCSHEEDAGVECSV

[3] = molecular target: T3, Cynomolgus MARCO, full length, on cells (cynomolgus, UniProt A0A2K5X0Z2 1-519); assay: flow cytometry, cells overexpressing cyno MARCO; cyn (second of hu/cyn)
T3 construct: whole, on cells; also called cyno MARCO; CyMARCO
T3 sequence: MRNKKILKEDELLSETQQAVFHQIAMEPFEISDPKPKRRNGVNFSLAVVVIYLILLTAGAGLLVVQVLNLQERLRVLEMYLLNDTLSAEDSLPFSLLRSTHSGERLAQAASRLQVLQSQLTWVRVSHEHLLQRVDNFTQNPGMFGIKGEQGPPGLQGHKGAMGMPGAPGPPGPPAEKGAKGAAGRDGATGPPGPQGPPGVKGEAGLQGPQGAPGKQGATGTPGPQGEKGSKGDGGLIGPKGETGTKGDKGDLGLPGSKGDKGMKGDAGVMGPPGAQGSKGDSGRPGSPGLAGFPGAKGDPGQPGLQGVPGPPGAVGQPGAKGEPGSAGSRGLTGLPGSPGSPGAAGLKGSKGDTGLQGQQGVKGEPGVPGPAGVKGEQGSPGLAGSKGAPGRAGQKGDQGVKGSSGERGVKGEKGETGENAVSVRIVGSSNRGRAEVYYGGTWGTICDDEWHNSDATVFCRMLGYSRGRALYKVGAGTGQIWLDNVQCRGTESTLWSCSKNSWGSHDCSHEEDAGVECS

[4] = molecular target: T1, N-terminally polyhistidine tagged human …; assay: Biacore, recombinant human MARCO; control sample
[5] = molecular target: T1, N-terminally polyhistidine tagged human …; assay: Biacore; deamidation stress sample (40 C 2 week)
[6] = molecular target: T1, N-terminally polyhistidine tagged human …; assay: Biacore; isomerization/fragmentation stress sample
[7] = molecular target: T1, N-terminally polyhistidine tagged human …; assay: Biacore; oxidation stress sample (1 mM AAPH, 6 hrs)
[8] = molecular target: T4, Mouse MARCO, full length, on cells (mouse, UniProt Q60754 1-518); assay: flow cytometry, 293T (muMARCO)
T4 construct: whole, on cells; the cell type is named under assay; also called muMARCO; MuMARCO
T4 sequence (looked up): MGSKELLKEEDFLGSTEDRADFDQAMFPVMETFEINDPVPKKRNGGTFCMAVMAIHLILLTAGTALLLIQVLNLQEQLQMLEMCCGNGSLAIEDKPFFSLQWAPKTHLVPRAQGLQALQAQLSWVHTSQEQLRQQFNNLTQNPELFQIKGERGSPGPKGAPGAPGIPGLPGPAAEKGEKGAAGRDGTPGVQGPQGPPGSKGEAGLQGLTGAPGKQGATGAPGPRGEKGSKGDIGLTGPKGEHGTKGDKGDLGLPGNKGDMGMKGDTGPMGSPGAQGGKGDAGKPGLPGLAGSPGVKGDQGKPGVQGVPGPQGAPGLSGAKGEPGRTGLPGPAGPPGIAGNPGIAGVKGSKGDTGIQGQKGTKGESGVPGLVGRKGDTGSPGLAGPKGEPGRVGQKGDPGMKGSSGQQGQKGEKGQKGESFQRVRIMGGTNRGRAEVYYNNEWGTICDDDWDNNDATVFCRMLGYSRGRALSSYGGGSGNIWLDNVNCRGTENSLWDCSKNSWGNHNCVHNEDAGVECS

hVar3 (RG3036) = molecular target: T5, hVar3 (RG3036) (human, UniProt Q9UEW3 147-520); assay: ELISA on hVar3
T5 construct: Human MARCO His-CLD-SRCR with Q452D, Y472S and K473S (already in the entry); also called recombinant human SRCR MARCO hVar3 protein

B1: PI-3015-AB (antibody, human IgG1, kappa)
heavy: not shown
light: DIQMTQSPSSLSASVGDRVTITCRASEGISNDLAWYQQKPGKAPKLLIYAASRLQSGVPSRFSGSGSGTDYTLTISSMQPEDFATYYCQQSYKYPLTFGQGTKLEIKRTVAAPSVFIFPPSDEQLKSGTASVVCLLNNFYPREAKVQWKVDNALQSGNSQESVTEQDSKDSTYSLSSTLTLSKADYEKHKVYACEVTHQGLSSPVTKSFNRGEC
- Kd [1]: 0.51 nM
- koff [1]: 0.000294 s⁻¹
- EC50 [2]: 0.798 nM
- EC50 [3]: 1.16 nM
- Kd [4]: 1.2 nM
- Kd [5]: 1.24 nM
- Kd [6]: 1.24 nM
- Kd [7]: 1.29 nM

B2: PI-HX-3061 (antibody, rat IgG2a)
heavy: EVQLVESGGGLVQPGSSLKLSCVASKFTFSNYGMNWIRQAPKKGLEWIALIYYNSNNKYYADSVKGRFTISRDNSKNTLYLEMNSLRSEDTAMYYCAKSLTGGSDYFDSWGQGVMVTVSSAETTAPSVYPLAPGTALKSNSMVTLGCLVKGYFPEPVTVTWNSGALSSGVHTFPAVLQSGLYTLTSSVTVPSSTWPSQTVTCNVAHPASSTKVDKKIVPRNCGGDCKPCICTGSEVSSVFIFPPKPKDVLTITLTPKVTCVVVDISQDDPEVHFSWFVDDVEVHTAQTRPPEEQFNSTFRSVSELPILHQDWLNGRTFRCKVTSAAFPSPIEKTISKPEGRTQVPHVYTMSPTKEEMTQNEVSITCMVKGFYPPDIYVEWQMNGQPQENYKNTPPTMDTDGSYFLYSKLNVKKEKWQQGNTFTCSVLHEGLHNHHTEKSLSHSP
light: DVQMTQSPSYLAASPGESVSISCKASKSIGTFLAWYQEKPEKTNKLLIYSGSTLQSGTPSRFSGSGSGTDFTLTIRNLEPEDFAVYYCQQHDEYPFTFGSGTKLEIKRADAAPTVSIFPPSTEQLATGGASVVCLMNNFYPRDISVKWKIDGTERRDGVLDSVTDQDSKDSTYSMSSTLSLTKADYESHNLYTCEVVHKTSSSPVVKSFNRNEC
notes: Parental rat hybridoma, rat IgG2a; cross reactive with human and mouse MARCO
- EC50 [8]: 2.53 nM

B3: PI-3010-AB (antibody, human IgG1, kappa)
heavy: not shown
light: DIQMTQSPASLSTSLGETVSIECLASEGISNDLAWYQQKSGKSPQLLIYAASRLQDGVPSRFSGSGSGTRYSLKISGMQPEDEADYFCQQSYKYPLTFGSGTKLEIKRTVAAPSVFIFPPSDEQLKSGTASVVCLLNNFYPREAKVQWKVDNALQSGNSQESVTEQDSKDSTYSLSSTLTLSKADYEKHKVYACEVTHQGLSSPVTKSFNRGEC
- binding result (hVar3 (RG3036)): no binding
